Experimental data taken from patent publication US9533059 (GE HEALTHCARE, dated 2017).
Positions of bridges follow the written chain, without caps; N, C: chain ends.

Target: human c-Met receptor (human, UniProt P08581 25-1390)
Test: cell-based or functional assay

Sequence of human c-Met receptor (P08581 25-1390): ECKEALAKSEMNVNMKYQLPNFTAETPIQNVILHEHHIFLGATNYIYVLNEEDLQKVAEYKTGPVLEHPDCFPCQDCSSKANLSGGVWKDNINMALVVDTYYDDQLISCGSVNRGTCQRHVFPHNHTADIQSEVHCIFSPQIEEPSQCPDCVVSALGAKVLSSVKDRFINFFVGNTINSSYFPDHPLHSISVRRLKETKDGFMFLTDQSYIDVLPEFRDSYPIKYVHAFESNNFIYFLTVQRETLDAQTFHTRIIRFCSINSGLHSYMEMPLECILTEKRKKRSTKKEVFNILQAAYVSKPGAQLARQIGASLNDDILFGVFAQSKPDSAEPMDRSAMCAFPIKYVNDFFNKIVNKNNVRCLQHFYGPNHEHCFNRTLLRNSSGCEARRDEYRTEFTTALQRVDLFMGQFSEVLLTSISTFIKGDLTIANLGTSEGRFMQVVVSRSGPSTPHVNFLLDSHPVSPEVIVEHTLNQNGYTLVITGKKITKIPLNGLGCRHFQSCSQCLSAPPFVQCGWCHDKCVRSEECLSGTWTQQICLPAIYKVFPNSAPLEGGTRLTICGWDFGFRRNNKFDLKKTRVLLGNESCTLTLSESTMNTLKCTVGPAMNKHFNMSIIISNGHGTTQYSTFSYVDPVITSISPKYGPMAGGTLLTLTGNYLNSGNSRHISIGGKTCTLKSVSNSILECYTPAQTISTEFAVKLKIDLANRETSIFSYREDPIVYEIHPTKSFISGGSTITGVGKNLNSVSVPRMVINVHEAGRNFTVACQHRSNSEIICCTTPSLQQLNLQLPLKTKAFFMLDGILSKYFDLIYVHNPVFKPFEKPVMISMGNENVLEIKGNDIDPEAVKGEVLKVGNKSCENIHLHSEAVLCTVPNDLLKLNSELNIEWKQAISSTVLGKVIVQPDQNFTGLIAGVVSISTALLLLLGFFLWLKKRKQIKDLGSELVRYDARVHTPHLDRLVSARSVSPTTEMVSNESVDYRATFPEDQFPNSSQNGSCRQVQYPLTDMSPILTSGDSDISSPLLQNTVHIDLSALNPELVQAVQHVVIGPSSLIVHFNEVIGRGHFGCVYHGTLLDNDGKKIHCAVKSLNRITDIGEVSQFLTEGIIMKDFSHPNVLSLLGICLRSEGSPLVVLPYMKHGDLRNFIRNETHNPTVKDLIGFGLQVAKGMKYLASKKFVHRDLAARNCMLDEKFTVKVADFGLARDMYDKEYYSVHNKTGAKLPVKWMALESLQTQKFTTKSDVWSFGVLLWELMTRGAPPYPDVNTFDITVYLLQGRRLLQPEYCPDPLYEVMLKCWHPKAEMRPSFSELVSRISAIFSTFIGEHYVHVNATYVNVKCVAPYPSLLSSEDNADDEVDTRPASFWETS

With Ac-AGSCYCSGPPRFECWCYETEGTGGGK(N‑(4-fluorobenzylidene)aminooxyacetyl)-NH2 (disulfide 6-14, 4-16) [Compound 3A] the “HT-29 tumour uptake of Compound 3B with 1000-fold excess unlabelled peptide” value was 1.1 % id/g and the “reduction in HT-29 tumour uptake of Compound 3B with 1000-fold excess unlabelled peptide” value was 40%.
